Experiments:
STAMP = target: T1, STAMP (Homo sapiens, UniProt Q6EMB2); test: siRNA assay: fold repression by GR of AP-1/Luc reporter in U2OS.rGR cells; type: cell-based; details: 500 ng siRNA, without HA/STAMP plasmid
T1 construct: Indirect immunofluorescence, using HA-tagged full-length STAMP; expressed in transfected cells; host or cells: U2OS.rGR
Method: U2OS.rGR cells were transiently transfected with (FIG. 5E) or without (FIG. 5F) HA/STAMP plasmid (100 ng) and ±500 ng of STAMP siRNA, or β-actin siRNA, plus AP-1/Luc reporter (20 ng) and the Renilla control (10 ng) plasmid. The cells were processed and the fold repression with each treatment was calculated as described in FIG. 5A. The average values were then plotted (±S.E.M., n=4-5 (FIG. 5D) and 7 (FIG. 5E); *, P≦0.032; **, P=0.0022).
Four different siRNA oligonucleotides for STAMP were designed and synthesized by Qiagen:
A control β-actin siRNA was also purchased from Qiagen. U2OS.rGR cells were seeded at 50,000 cells per well in 24 wells plate the day before transfection. DNA (STAMP plasmid and AP-1/Luc reporter; total=150 ng) together with 500 ng siRNA were mixed with 1.6 μl Lipofectamine 2000 (Invitrogen), allowed to stand at room temperature for 15 min, and then added to FBS-free DMEM pre-washed cells. Four hours later, the cells were re-fed with DMEM/10% FBS (containing G418), allowed to recover for 2 h, and re-fed with DMEM/10% FBS (containing G418) containing appropriate hormone dilutions±PMA. The cells were harvested and Luciferase activity was determined as described above in the standard transient transfection studies.

TIF2.4 [1] = target: T2, TIF2.4 (Homo sapiens, UniProt Q15596); test: Mammalian two-hybrid assay in CV-1 cells (pFRLuc reporter) with TIF2.4; type: cell-based; parameters: expressed in transfected cells; host or cells: CV-1
T2 sequence (Q15596 624-1010 limits assumed): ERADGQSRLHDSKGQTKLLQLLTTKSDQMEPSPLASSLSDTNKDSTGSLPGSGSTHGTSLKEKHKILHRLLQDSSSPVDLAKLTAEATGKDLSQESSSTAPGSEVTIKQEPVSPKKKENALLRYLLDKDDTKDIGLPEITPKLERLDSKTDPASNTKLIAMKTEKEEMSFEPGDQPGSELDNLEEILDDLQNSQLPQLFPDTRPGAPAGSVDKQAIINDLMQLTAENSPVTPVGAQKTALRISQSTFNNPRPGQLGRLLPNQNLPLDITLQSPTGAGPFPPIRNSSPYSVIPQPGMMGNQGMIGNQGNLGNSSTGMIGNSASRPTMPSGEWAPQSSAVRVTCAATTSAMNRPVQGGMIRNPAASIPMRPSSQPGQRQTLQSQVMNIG
Excerpt: FIG. 2A-2C illustrate the isolation and characterization of the partial clone of the protein that binds to TIF2.4. […] Five clones were obtained but only two (clones I and V) contained a protein that was needed for colony growth in the presence of the pSos/TIF2.4 fusion protein. After initial screening, only clone I (also named 6-6CL1) was selected for further investigation. FIG. 2B and FIG. 2C illustrate the selectivity of 6-6CL1 interactions with TIF2.4 in mammalian two-hybrid assays. Triplicate samples of CV-1 cells in 24-well plates were transiently transfected with the indicated GAL-DBD and VP16-AD plasmids along with the GAL4-regulated reporter, pFRLuc. The relative luciferase activity, normalized for the activity of the internal Renilla control, was determined and plotted as the average±S.D. The much lower activity of GAL/TIF2.4m123 was previously shown not to be due to unequal levels of protein expression (He et al., 2002). Similar results were obtained in three additional experiments. FIG. 2D and FIG. 2E provide a comparison of binding to 6-6CL1 by similarly positioned domains of SRC-1 and TIF2. Triplicate samples of CV-1 cells in 24-well plates were analyzed as in (B&C) after being transiently transfected with GAL±6-6CL1 constructs and pFRLuc reporter along with VP16 chimeras of SRC-1 (FIG. 2D) or TIF2 (FIG. 2E) segments. Similar results for SRC-1 were obtained in two additional experiments (ND=not determined). Western blots (FIG. 2F) indicate that the low activity of TIF2(1140C) (see FIG. 1) is not due to inadequate protein expression.
FIGS. 6A and 6B illustrate the domains of STAMP that interact with TIF2.4 (FIG. 6A) and GR (FIG. 6B) in the mammalian two-hybrid assay. […] These CV-1 cells were also transfected with GAL fused to the indicated segments of STAMP along with the FRLuc reporter and Renilla control plasmids. After determining the relative luciferase activities as described in FIG. 2B and 2C, the average values±S.E.M. from 2-5 experiments were plotted. The average fold increase for VP16/TIF2.4 with GAL/STAMP(623-834) in FIG. 6A was 11.0±3.0 (SEM, n=5) above the VP16 control. The values in parentheses above the data bars in FIG. 6B indicate the fold increased interaction ±1 μM Dex.
These assays were conducted as described (He et al., 2002). In particular, the recommended procedure for the Mammalian Matchmaker two-hybrid assay kit (Clontech) was modified slightly by changing from a chloramphenicol acetyltransferase reporter to a Luciferase Reporter pFRLuc (Stratagene), which is under the control of five repeats of the upstream activating sequence for the binding of GAL4.

TIF2.4 [2] = target: T2, TIF2.4; test: Cell-free pulldown of [35S]-labeled STAMP constructs by GST/TIF2.4; type: binding; details: compared with GST itself
Excerpt: (§1) FIGS. 7A and 7B illustrate the domains of STAMP that bind to TIF2.4 (FIG. 7A) and GR (FIG. 7B) in cell-free pulldown assays. Bacterially expressed GST-chimeras (GST/TIF2.4 in FIG. 7A and GST/STAMP segments in FIG. 7B) were immobilized on glutathione-Sepharose beads. The [^35S]methionine labeled STAMP fragments (FIG. 7A) or wild type GR (FIG. 7B) that were retained on the matrix by binding to the GST chimeras were separated on SDS PAGE gels and visualized by autoradiography. Specific binding was seen as when the GST/TIF2.4 or GST/STAMP bands were darker than the GST control bands. […] Similar results were obtained in a second experiment.
(§2) Template DNA plasmids (1 μg), 40 μl of Promega TNT (SP6) quick coupled transcription/translation system master mixture, and 2 μl of [^35S]methionine (Amersham Biosciences) were brought up to a total volume of 50 μl with H2O and incubated at 30° C. for 90 min according to the manufacturer's (Promega) recommendations. If hormone stimulation is needed, hormones (Dex, etc) were added into the transcription-translation reaction during the 30° C. incubation to both increase the stability of the synthesized GR and to cause activation of the GR-steroid complexes.
These assays were conducted generally as described (He et al., 2002). Sonicated bacterial lysates (1 ml) containing overexpressed GST, GST/TIF2.4, or GST/STAMP-956C were incubated with 160 μl of glutathione-Sepharose 4B beads for 1 hr at 0° C. The mixture was centrifuged (12,000×g), the supernatant was discarded, and the pellet was washed with phosphate-buffered saline (3×1 ml). Each 20-μl sample of immobilized GST or GST-chimera was then incubated overnight with 10 μl of ^35S-labeled in vitro translation product. The matrix was washed with phosphate-buffered saline (4×1 ml). The immobilized proteins were removed from the beads by heating at 90° C. for 5 min in 20 μl of 2×SDS loading buffer. The proteins were separated on 8-10% SDS-PAGE gels and detected by radio-autoradiography.

[3] = target: T3, glucocorticoid receptor (GR) (Rattus norvegicus, UniProt P06536); test: Cell-free pulldown of [35S]-labeled GR by GST/STAMP segment; type: binding; details: with and without steroid
T3 construct: made in house; host or cells: cell-free coupled transcription/translation (Promega TNT SP6); the GST partner was made in E. coli BL21
T3 sequence (P06536 1-795): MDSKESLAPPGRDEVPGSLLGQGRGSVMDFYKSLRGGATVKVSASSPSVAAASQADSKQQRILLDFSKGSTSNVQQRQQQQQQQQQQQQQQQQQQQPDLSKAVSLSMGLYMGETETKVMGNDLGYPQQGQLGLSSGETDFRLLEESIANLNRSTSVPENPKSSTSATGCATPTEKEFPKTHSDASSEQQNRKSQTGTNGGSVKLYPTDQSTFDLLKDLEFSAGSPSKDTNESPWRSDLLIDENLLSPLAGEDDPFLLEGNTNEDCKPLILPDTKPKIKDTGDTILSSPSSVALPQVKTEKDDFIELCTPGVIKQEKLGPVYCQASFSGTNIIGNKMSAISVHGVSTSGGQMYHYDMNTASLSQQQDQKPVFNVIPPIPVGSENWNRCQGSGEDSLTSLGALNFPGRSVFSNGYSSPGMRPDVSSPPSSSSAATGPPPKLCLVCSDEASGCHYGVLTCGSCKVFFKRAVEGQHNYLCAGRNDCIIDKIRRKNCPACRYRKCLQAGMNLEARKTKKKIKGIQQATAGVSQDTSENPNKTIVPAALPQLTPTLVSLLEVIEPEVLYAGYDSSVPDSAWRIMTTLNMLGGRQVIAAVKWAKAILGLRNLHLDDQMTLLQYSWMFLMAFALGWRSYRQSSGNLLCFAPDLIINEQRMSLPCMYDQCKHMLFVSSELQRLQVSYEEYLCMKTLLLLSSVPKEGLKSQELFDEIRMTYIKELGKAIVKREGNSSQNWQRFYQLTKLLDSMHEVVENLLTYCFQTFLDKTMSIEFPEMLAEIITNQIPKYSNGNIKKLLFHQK
T3 sequence (Q6EMB2 960-1281 F1267S partner limits assumed): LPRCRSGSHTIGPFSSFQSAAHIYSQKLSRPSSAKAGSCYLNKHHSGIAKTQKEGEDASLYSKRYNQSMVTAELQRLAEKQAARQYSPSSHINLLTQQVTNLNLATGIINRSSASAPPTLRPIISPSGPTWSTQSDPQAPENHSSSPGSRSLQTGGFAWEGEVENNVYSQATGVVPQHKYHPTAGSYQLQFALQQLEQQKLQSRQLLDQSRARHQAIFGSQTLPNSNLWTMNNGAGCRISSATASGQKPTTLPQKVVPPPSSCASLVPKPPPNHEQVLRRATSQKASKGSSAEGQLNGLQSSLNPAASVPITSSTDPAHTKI
Excerpt: as §1, §2
These assays were conducted generally as described (He et al., 2002). […] The proteins were separated on 8-10% SDS-PAGE gels and detected by radio-autoradiography.

T1 sequence (Q6EMB2 5-1281 A149V/F1267S limits assumed): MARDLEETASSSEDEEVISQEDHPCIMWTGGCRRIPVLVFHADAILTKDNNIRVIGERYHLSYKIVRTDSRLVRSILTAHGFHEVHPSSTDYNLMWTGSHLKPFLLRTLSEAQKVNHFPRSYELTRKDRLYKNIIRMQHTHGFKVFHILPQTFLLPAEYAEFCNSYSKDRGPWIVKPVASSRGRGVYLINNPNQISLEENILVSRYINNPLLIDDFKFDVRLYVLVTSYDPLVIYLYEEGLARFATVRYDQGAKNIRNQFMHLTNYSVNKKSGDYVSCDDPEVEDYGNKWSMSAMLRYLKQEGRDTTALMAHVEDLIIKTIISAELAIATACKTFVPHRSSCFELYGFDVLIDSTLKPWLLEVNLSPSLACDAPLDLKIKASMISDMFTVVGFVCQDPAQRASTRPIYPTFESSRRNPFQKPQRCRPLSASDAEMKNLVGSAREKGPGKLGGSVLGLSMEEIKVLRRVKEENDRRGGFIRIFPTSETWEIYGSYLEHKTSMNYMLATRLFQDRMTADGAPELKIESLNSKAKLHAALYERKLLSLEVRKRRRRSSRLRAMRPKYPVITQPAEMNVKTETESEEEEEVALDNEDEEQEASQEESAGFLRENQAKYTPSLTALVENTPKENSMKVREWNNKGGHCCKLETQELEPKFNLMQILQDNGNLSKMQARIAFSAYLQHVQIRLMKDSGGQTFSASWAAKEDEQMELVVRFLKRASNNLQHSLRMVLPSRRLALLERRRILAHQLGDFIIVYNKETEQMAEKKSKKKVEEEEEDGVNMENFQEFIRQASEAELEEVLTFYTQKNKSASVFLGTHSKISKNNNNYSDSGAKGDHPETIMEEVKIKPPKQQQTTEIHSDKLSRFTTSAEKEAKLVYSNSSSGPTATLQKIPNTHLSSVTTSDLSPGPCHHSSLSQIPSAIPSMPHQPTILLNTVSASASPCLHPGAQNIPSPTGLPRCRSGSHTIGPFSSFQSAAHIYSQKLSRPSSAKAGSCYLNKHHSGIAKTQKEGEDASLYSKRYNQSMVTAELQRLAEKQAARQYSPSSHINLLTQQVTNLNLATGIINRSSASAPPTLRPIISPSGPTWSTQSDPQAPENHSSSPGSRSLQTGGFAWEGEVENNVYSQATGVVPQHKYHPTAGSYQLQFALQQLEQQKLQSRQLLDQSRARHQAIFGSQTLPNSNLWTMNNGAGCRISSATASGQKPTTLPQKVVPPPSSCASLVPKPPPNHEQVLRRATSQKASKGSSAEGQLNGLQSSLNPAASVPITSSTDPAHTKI

In the case of “CAGCACTGACTATAACCTAAT (chemistry not given here) [STAMP siRNA #3, siRNA oligonucleotide for STAMP synthesized by Qiagen]”, the “repressive activity of GR-agonist complexes (endogenous STAMP)” value (STAMP) is reported as “can reduce the repressive activity of GR-agonist complexes”.

With “GAGGGCAATGAGGCCAAAATA (chemistry not given here) [STAMP siRNA #4, siRNA oligonucleotide for STAMP synthesized by Qiagen]” the “repressive activity of GR-agonist complexes (endogenous STAMP)” value (STAMP) was “can reduce the repressive activity of GR-agonist complexes”.

B1: N623: STAMP fragment amino acids 1-623, TTL domain but not the CID region (protein)
chain: MARDLEETASSSEDEEVISQEDHPCIMWTGGCRRIPVLVFHADAILTKDNNIRVIGERYHLSYKIVRTDSRLVRSILTAHGFHEVHPSSTDYNLMWTGSHLKPFLLRTLSEAQKVNHFPRSYELTRKDRLYKNIIRMQHTHGFKVFHILPQTFLLPAEYAEFCNSYSKDRGPWIVKPVASSRGRGVYLINNPNQISLEENILVSRYINNPLLIDDFKFDVRLYVLVTSYDPLVIYLYEEGLARFATVRYDQGAKNIRNQFMHLTNYSVNKKSGDYVSCDDPEVEDYGNKWSMSAMLRYLKQEGRDTTALMAHVEDLIIKTIISAELAIATACKTFVPHRSSCFELYGFDVLIDSTLKPWLLEVNLSPSLACDAPLDLKIKASMISDMFTVVGFVCQDPAQRASTRPIYPTFESSRRNPFQKPQRCRPLSASDAEMKNLVGSAREKGPGKLGGSVLGLSMEEIKVLRRVKEENDRRGGFIRIFPTSETWEIYGSYLEHKTSMNYMLATRLFQDRMTADGAPELKIESLNSKAKLHAALYERKLLSLEVRKRRRRSSRLRAMRPKYPVITQPAEMNVKTETESEEEEEVALDNEDEEQEASQEESAGFLRENQAKYTPSLTALVE
modifications: GAL4 DBD fusion
notes: STAMP fragment amino acids 1-623, TTL domain but not the CID region
In the case of B1, the “interaction with TIF2.4” value (TIF2.4 [1]) is reported as “weak response” and the “binding to GST/TIF2.4” value (TIF2.4 [2]) is reported as “neither the amino terminal (N623) nor the C-terminal (834C) fragments exhibit significantly more binding to GST/TIF2.4 than to GST itself”.

B2: GST/STAMP(956C): GST chimera of STAMP fragment amino acids 956 to 1277 (protein)
chain: LPRCRSGSHTIGPFSSFQSAAHIYSQKLSRPSSAKAGSCYLNKHHSGIAKTQKEGEDASLYSKRYNQSMVTAELQRLAEKQAARQYSPSSHINLLTQQVTNLNLATGIINRSSASAPPTLRPIISPSGPTWSTQSDPQAPENHSSSPGSRSLQTGGFAWEGEVENNVYSQATGVVPQHKYHPTAGSYQLQFALQQLEQQKLQSRQLLDQSRARHQAIFGSQTLPNSNLWTMNNGAGCRISSATASGQKPTTLPQKVVPPPSSCASLVPKPPPNHEQVLRRATSQKASKGSSAEGQLNGLQSSLNPAASVPITSSTDPAHTKI
modifications: GST fusion
With B2 the “binding of full length GR” value [3] was “this binding is steroid-independent”.

From patent US7867500B2, “Cofactor that modulates steroid receptor activities” (The United States of America as represented by the …, priority 2004, dated 2011)
